In experiment [1] the target is T1, SARS-CoV-2 N protein, full-length (SARS-CoV-2, UniProt P0DTC9 1-419).
T1 construct: mature; also called SARS-CoV-2 nucleoprotein
Briefly: Octet (BLI) kinetics.

Experiment [2] deals with SARS-CoV-2 N protein RNA-binding domain (SARS-CoV-2, UniProt P0DTC9 44-180). In words: Octet (BLI) kinetics.
The target in experiment [3] is T2, SARS-CoV-2 N protein oligomerization domain (SARS-CoV-2, UniProt P0DTC9 247-364).
T2 construct: also called N olig. domain; OD
Briefly: Octet, KD (nM) heat map.

B1: NP3-B2 (antibody, V domains shown)
VH: QIQLVQSGGGLVKPGGSLKLSCAASGFTFSDYYMSWVRQTPEKRLEWVATISDGGSYTYYPDSVKGRFTISRDNAKNNLYLHMSSLKSEDTAMYYCARGSTYGNPLDYWGQGTTLTVSS
VL: DIQMTQTTSSLSASLGDRVTINCSASQGISNYLNWYQQKPDGTVKLLIYFTSSLHSGFPSRFSGSGSGTDFSLTISNLEPEDIATYYCQQYSKLPFTFGSGTKLEIK
As for B1, the results for the Kd in experiment [1] and in experiment [2] were 1.51 nM and 0.9 nM, respectively. In addition, the binding result in experiment [3] was “no binding”.

B2: NP3-E5 (antibody, V domains shown)
VH: EVQLVESGGGLVKPGGSLKLSCAASGFTFSDYYMSWVRQTPEKRLEWVATISDGGNYTYYPDSVKGRFTISRDNAKNNLYLQMSSLKSEDTAMYYCARGSTYGNPLDHWGQGTTLTVSS
VL: DIQMTQTTSSLSASLGDRVTINCSASQGISNYLNWYQQKPDGTVKLLIYYTSILHSGVPSRFSGSGSGTDYSLTISNLEPEDIATYYCQQYSKLPFTFGSGTKLEIK
In the case of B2, the Kd in experiment [1] came to 0.8 nM; in experiment [2] it was 1.38 nM. In addition, the binding result in experiment [3] was “no binding”.

B3: NP3-G6 (antibody, V domains shown)
VH: EVQLVESGGGLVKPGGSLKLSCAASGFTFSDYYMSWVRQTPEKRLEWVATISDGGSYTYYPDSVKGRFTISRDNAKNNLYLHMSSLKSEDTAMYYCARGSTYGNPLDYWGQGTSVTVSS
VL: DIQMTQSPASLSASLGDRVTINCSASQGISNYLNWYQQKPDGTVKLLIYFTSSLHSGFPSRFSGSGSGTDFSLTISNLEPEDIATYYCQQYSKLPFTFGSGTKLEIK
As for B3, the results for the dissociation constant (Kd) in experiment [1] and in experiment [2] were 0.43 nM and 0.88 nM, respectively. In addition, the binding result in experiment [3] is recorded as “no binding”.

B4: NP3-D5 (antibody, V domains shown)
VH: DVQLQESGPELVRPGVSVKISCKGSGYTFTDYVMHWVKQSHAKSLEWIGVISTYSGNTNYNQKFKGKATMTVDKFSNTAYMELARLTSEDSAIYYCTRGTGDFDYWGQGTTLTVSS
VL: DIVMTQSHKFMSTSVGDRVSITCKASQDVGTAVAWYQQKPGQSPKLLIYWASTRHTGVPDRFTGSGSGTDFTLTISNVQSEDLADYFCHQYSSYPYTFGGGTKLEIK
As to B4, the binding result in experiment [3] is “no binding”.

B5: NP3-E11 (antibody, V domains shown)
VH: EVQLQQSGPELVRPGVSVKISCKGSGYTFTDYVMHWVKQSHAKSLEWIGVISTYSGNTNYNQKFKGKATMTVDKSSNTVYMELARLTSEDSAIYYCTRGTGDFDYWGQGTTLTVSS
VL: DIVMTQSHKFMSTSVGDRVSITCKASQDVGSAVAWYQQKPGQSPKLLIYWTSTRHTGVPDHFTGSGSGTDFTLTINNVQSEDLADYFCHQYSSYPYTFGGGTKLEIK
Regarding B5, the figures for the Kd in experiment [1] and in experiment [2] were 1.23 nM and 0.57 nM, respectively. For the same molecule, in experiment [3], the binding result is given as “no binding”.

B6: NP3-B1 (antibody, V domains shown)
VH: QVQLQQSGPELVKPGTSVTVYCKASGYTFTTYNIYWVKQSHGKSLEWIGYIDPYNGGTSYNQKFKGKATLTVDKSSSAAYMHLNSLTSEDSAVYYCALPWDYWGQGTTVTVSS
VL: not shown
In experiment [1], B6 displayed a Kd of 2.01 nM. Also, in experiment [3], the binding result is on record as “no binding”.

B7: NP3-D1 (antibody, V domains shown)
VH: DVQLQESGPELAKPGASVKVSCKASGYTFTSYNIYWVKQSHGKSLEWIGYIDPYNGGTSYNQKFKGKATLTVDKSSSTAYMHLNSLTSEDSAVYYCALPWDYWGQGTSVTVSS
VL: not shown
As for B7, the Kd in experiment [1] turned out to be 5.63 nM; in experiment [2] it was 0.0015 nM. For the same molecule, in experiment [3], the binding result is recorded as “no binding”.

B8: NP3-A11 (antibody, V domains shown)
VH: EVQLQESGPELKKPGETVKISCKVSGYTFTNYGMNWVKQAPGKGLKWMGWINTYTGEPKYGDDFKGRFALSLETSAGTAYLRINNLKNEDTATYFCARSHGNYENHFDYWGQGTTLTVSS
VL: DIQMTQSPSSLSVSVGETVTITCRASENIYSSLAWYQQKQGKSPQLLVYTATDLADGVPSRFSGSGSGSQYSLRINSLQSEDFGSYYCQHFWGFPWTFGGGTKLEIK
B8: the Kd stood at 0.71 nM in experiment [1] and 1.01 nM in experiment [2]. In experiment [3], the binding result is given as “no binding”.

B9: NP3-C5 (antibody, V domains shown)
VH: QIQLVQSGPELKTPGETVKISCKASGYTFTNCGMHWVKQAPGKGLKWMGWINTYTGEPIYADDFKRRFAFSLETSASTAYLQINNLNNEDTASYFCARRDDVYYVAGFDYWGQGTTVTVFS
VL: DIQMTQSPASLSVSVGETVTITCRASENIYSNLAWYQQKQGKSPQLLVYGATDLADGVPSRFSGSGSGTQYSLKINSLQSEDFGSYYCQHFWGTPWTFGGGTKLELK
In the case of B9, the dissociation constant (Kd) turned out to be 0.73 nM in experiment [1] and 0.62 nM in experiment [2]. Besides, the binding result in experiment [3] is “no binding”.

B10: NP3-B9 (antibody, V domains shown)
VH: EVQLQQSGPELKKPGETVKISCKTSGYTFTNCGMHWVKQAPGKGLKWMGWINTYTGEPTYADDFKGRFAFSLETSVNTAYLQINNLKSEDTASYFCARRDDVYYVAGFDYWGQGTTLTVSS
VL: DIQMTQSPASLSVSVGETVTITCRASENIYSNLAWYQQKQGKSPQLLVNGATDLADGVPSRFSGSGSGTQYSLKINSLQSEDFGSYYCQLFWGTPWTFGGGTKLEIK
B10: the Kd in experiment [1] amounted to 0.38 nM; in experiment [2], 0.47 nM. In experiment [3], the binding result was “no binding”.

B11: NP3-E3 (antibody, V domains shown)
VH: QIQLVQSGPDLKKPGETVKISCKASGYTFTDYSMHWVKQVPGKGLKWMGWINTETDKPTYADDFKGRFAFSLETSASTAYSQINNLKNEDTATYFCARHYKYDEAWSPYWGQGTLVTVSA
VL: DIVLTQSPASLSVSVGETVTITCRASENIYSNLAWYQQKQGQSPQLLVYAATDLADGVPSRFSGSGSGTQYSLKINSLQSEDFGNYYCQHFWGTPWTFGGGTKLEIK
As for B11, the equilibrium dissociation constant (Kd) in experiment [2] stood at 1.36 nM. In experiment [3], the binding result is reported as “no binding”.

B12: NP3-E2 (antibody, V domains shown)
VH: EVQLQQSGPEVVRPGVSVKISCKGSGYTFTDYALHWVKQSHTKSLEWIGVISTYSGTTNYNQNFKGKATMAVDKSSSTAYMELARLTSEDSAIYYCASGGNYGLDYWGQGTSVTVSS
VL: DIVMTQSHKFMSTSVGDRVSITCKANQDVGSAVAWYQEKPGQSPKLLIYWTSTRHTGVPDRFTGNGSGTDFTLTISNVQSEDLVDYFCQQYSRYPLTFGSGTKLELK
As to B12, in experiment [1], binding was put at a Kd of 0.57 nM. Further, the binding result in experiment [3] is given as “no binding”.

B13: NP3-E4 (antibody, V domains shown)
VH: EVQLVESGPGLVAPSQSLSITCTVSGFSLTSYGVSWVRQPPGKGLEWLGVIWGDGSTNYHSALISRLSINKDNSKSQVFLRLNSLQTDDTATYYCAKEDDGYLFYFDYWGQGTTLTVSS
VL: DIKMTQSPSSLSASLGDRVTISCSASQDISDYLNWYQQKPDGTVKLLIYYTSSLHSGVPSRFSGSGSGTDYSLTISNLEPEDIATYYCQQYSKLPYTFGGGTKLEIK
On to B13, for which the equilibrium dissociation constant (Kd) was 0.71 nM in experiment [1] and 3.46 nM in experiment [2]. Further, in experiment [3], the binding result was “no binding”.

B14: NP3-G5 (antibody, V domains shown)
VH: EVQLVESGPELKKPGEPVRISCKASGYTFTDYGMNWVKQAPGKGLKWMGWINTYTGEPTYADDFKGRFAFSLETSASTAFLQITNLKNEDTATYFCARAPLLRSYFDYWGQGTSVTVSS
VL: DIVMTQSHKFMSTSVGDRISITCKASQDVSTAVVWYQQKPGQSLKLLIYSASYRYTGVPDRFTGSGSGTDFTFTISSVQAEDLAIYYCQQYYSTPFTFGSGTKLEIK
Consider B14, for which the binding result in experiment [3] was “no binding”.

Source of the values: patent publication US20250320278A1 (LA JOLLA INSTITUTE FOR IMMUNOLOGY, published 2025).
